# Results published in patent US20070065430A1 (GlaxoSmithKline, published 2007).
# T1: recombinantly expressed human NOGO-A (hNOGO) (human, UniProt Q9NQC3 586-785, limits assumed)
# T1 sequence (looked up): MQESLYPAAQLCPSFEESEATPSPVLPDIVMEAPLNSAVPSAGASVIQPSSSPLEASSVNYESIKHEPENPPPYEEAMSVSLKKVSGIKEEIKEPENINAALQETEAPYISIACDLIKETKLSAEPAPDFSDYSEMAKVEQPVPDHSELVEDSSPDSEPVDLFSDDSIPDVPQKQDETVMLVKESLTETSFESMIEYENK
# T2: GST-human NOGO-A56 fusion protein (amino acids 586-785 of human NOGO-A) (human, UniProt Q9NQC3 586-786)
# T2 construct: Expressed in E. coli BL21 and purified on glutathione-sepharose; Coated on plates for the ELISAs and dried onto wells for the neurite outgrowth assay; also called GST-NOGO-A56; GST-Nogo5&6
# T2 sequence: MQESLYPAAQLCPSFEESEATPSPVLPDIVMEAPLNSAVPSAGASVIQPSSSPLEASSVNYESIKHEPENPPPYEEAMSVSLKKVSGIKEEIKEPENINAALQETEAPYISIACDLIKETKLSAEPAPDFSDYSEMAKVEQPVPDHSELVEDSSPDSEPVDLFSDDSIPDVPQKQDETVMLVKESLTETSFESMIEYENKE
# T3: rat NOGO-A (rat, UniProt Q9JK11 173-975, limits assumed)
# T3 construct: Used in 'a similar analysis' by Biacore
# T3 sequence (looked up): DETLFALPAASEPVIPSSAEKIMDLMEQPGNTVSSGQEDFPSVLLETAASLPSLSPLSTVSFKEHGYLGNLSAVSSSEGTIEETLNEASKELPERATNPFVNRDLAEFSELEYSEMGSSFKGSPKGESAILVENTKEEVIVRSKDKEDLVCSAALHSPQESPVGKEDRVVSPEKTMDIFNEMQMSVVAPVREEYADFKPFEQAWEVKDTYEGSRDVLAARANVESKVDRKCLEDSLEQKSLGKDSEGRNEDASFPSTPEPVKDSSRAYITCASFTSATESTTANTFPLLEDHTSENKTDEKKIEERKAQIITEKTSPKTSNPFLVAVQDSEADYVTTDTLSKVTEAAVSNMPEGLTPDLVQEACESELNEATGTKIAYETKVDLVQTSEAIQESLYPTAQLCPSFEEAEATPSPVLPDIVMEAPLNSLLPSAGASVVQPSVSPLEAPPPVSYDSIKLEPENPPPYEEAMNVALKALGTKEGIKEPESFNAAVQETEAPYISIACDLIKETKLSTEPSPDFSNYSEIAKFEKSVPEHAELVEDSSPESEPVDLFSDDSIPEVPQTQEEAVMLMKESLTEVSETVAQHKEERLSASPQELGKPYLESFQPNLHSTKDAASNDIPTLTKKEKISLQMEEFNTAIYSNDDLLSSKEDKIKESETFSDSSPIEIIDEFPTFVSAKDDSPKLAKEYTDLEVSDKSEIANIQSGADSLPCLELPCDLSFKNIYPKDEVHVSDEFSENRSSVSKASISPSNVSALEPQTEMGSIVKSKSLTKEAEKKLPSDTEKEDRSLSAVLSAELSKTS
# How the values were obtained:
# [1] = molecular target: T1, recombinantly expressed human NOGO-A …; assay: SPR, Biacore3000; hNOGO amine-coupled to CM5 chip, antibody in solution
# Procedure: The binding kinetics of the anti-NOGO monoclonal antibody (mAb) to recombinantly expressed human NOGO-A (hNOGO) was analysed using the Biacore3000 biosensor. The methodology was as followed:
# hNOGO was immobilised to a CM5 chip by primary amine coupling using the Biacore Wizard program designed for targeted immobilisation levels. The CM5 sensor surface was activated by passing a solution of 50 mM N-hydroxy-succinimide (NHS) and 200 mM N-ethyl-N′-dimethylaminopropyl carbonide (EDC). Then using a 300 nM solution of hNOGO in 5 mM sodium acetate, pH5.0, a range of concentrations between 50-200 resonance units of hNOGO were immobilised. After immobilisation was complete any still activated esters were blocked by an injection of 1 M ethanolamine hydrochloride, pH8.5.
# The H1L11 mAb (see example 8) was diluted down in HBS-EP (10 mM HEPES, pH 7.4, 150 mM NaCl, 3 mM EDTA, and 0.005% P-20 surfactant) and binding studies were carried out at concentrations ranging between 0.1-100 nM. For kinetic analysis a flowrate of 60 μl/minute was used, with no mass transfer effects seen. All concentrations were performed in duplicate, in a random order with buffer blanks included. Regeneration was achieved either by the single injection of a 15 μl pulse of 50 mM sodium hydroxide alone or the injection of 15 μl of 100 mM H₃PO₄, followed by a subsequent injection of 15 μl of 50 mM sodium hydroxide. […] All runs were referenced against a blanked sensor surface (one that had been activated and blocked as described earlier but had no addition of ligand). Analysis of binding was carried out using the BIAevaluation kinetic analysis software version 4.1. Biacore analysis of other antibodies of the invention essentially followed the same protocol as described herein.
# [2] = molecular target: T2, GST-human NOGO-A56 fusion protein …; assay: ELISA; GST-human NOGO-A56 coated at 1 µg/ml, anti-human kappa peroxidase detection
# Procedure: GST-human NOGO-A56 at 1 μg/ml in 50 mM Tris pH9.5 was coated onto Nunc Immunosorp plates (100 μl per well) at 4° C. overnight. Wells were rinsed once with TBS+0.05% tween then incubated with 2% BSA in TBS+0.05% tween to block non-specific binding sites at room temperature for Ihour. Antibodies were diluted in TBS+0.05% tween+2% BSA to 10 μg/ml and ½ dilutions made from this. Antibodies were added to wells in duplicate and incubated at room temperature for 1 hour. Wells were washed three times with TBS+0.05% tween then incubated with anti-human kappa peroxidase conjugate (1:2000) for 1 hour. Washed three times with TBS+0.05% tween and then incubated with 100 μl OPD peroxidase substrate (Sigma) per well for 10 minutes. The colour reaction was stopped by the addition of 25 μl concentrated H₂SO₄. Optical density at 490 nm was measured using a plate reader. Background values read from wells with no antibody were subtracted.
# FIGS. 35A to C illustrates the dose-dependent binding of humanised antibody H1L11 in comparison with the chimera (HcLc) to human NOGO-A56 in an ELISA assay.
# rat NOGO-A = molecular target: T3, rat NOGO-A; assay: SPR, Biacore; similar analysis using rat NOGO-A
Kd [1] [nM],koff [1] [s⁻¹],kon [1] [M⁻¹ s⁻¹],EC50 [2] [µg/mL],Kd (rat NOGO-A) [nM],koff (rat NOGO-A) [s⁻¹],kon (rat NOGO-A) [M⁻¹ s⁻¹],Binder
1.26,0.00249,2.23e+06,0.022,,,,"Chimeric 2A10 (HcLc) (antibody, human IgG1, kappa, V domains shown, Murine 2A10 V regions on human IgG1/k wild type C regions; also called chimaera of 2A10; the chimera) VH: QVQLQQPGTELVKPGASVKLSCKASGYTFTSYWMHWVKQRPGQGLEWIGNINPSNGGTNYNEKFKSKATLTVDKSSSTAYMQLSSLTSEDSAVYYCELGQGYWGQGTLVTVSS VL: DIVITQDELSNPVTSGESVSISCRSSKSLLYKDGKTYLNWFLQRPGQSPQLLIYLMSTRASGVSDRFSGSGSGTDFTLEISRVKAEDVGVYYCQQLVEYPLTFGAGTKLELKR"
0.8,0.00184,2.9e+06,,1,0.00101,1.26e+06,"Anti-NOGO antibody 2A10/3 (mouse monoclonal) (antibody, V domains shown, Mouse hybridoma antibody; also called Mouse 2A10; 2A10-BR) VH: QVQLQQPGTELVKPGASVKLSCKASGYTFTSYWMHWVKQRPGQGLEWIGNINPSNGGTNYNEKFKSKATLTVDKSSSTAYMQLSSLTSEDSAVYYCELGQGYWGQGTTLTVSS VL: DIVITQDELSNPVTSGESVSISCRSSKSLLYKDGKTYLNWFLQRPGQSPQLLIYLMSTRASGVSDRFSGSGSGTDFTLEISRVKAEDVGVYYCQQLVEYPLTFGAGTKLELK"
17.5,0.000828,40700,,24.9,0.00087,46000,"Anti-NOGO antibody 15C3/3 (mouse monoclonal) (antibody, V domains shown, Mouse hybridoma antibody; also called Mouse 15C3) VH: QVQLQQSGAELVKPGASVKISCKASGYAFSSYWMNWVKQRPGKGLEWIGQIYPGDGDTNYNGKFKGKATLTADKSSSTAYMQLSSLTSEDSAVYFCAVRFDYWGQGTTLTVSS VL: DIVMTQAAPSVPVTPGESVSISCRSSKSLLHSNGNTYLYWFLQRPGQSPQLLIYRMSNLASGVPDRFSGSGSGTAFTLRISRVEAEDVGVYYCMQHLEYPLTFGAGTKLELK"
22.2,0.0215,1e+06,0.118,,,,"Humanised anti-NOGO antibody H1L11 (antibody, V domains shown, It was expressed transiently in CHO cells; also called H1l L11) VH: QVQLVQSGAEVKKPGASVKVSCKASGYTFTSYWMHWVRQAPGQGLEWMGNINPSNGGTNYNEKFKSRVTMTRDTSTSTVYMELSSLRSEDTAVYYCELGQGYWGQGTTVTVSS VL: DIVITQSPLSLPVTLGQPASISCRSSKSLLYKDGKTYLNWFQQRPGQSPQLLIYLMSTRASGVPDRFSGGGSGTDFTLKISRVEAEDVGVYYCQQLVEYPLTFGQGTKLEIK"
8,0.000644,80900,,3.9,0.000533,162000,"Anti-NOGO antibody 2C4/1 (mouse monoclonal) (antibody, V domains shown, Mouse hybridoma antibody; also called Mouse 2C4) VH: EVQLVESGGGLVKPGGSLKLSCAASGFTFSCYAMSWVRQTPEKRLEWVASISDGGSYTYYPDNVKGRFTISRDNAKNNLYLQMSHLKSEDTAMYYCAKELLFDYWGQGTTLTVSS VL: DVVMTQTPLSLPVSLGDQASISCRSSQSLVHSNGNTYLHWYLQKPGQSPKLLIYKVSNRFSGVPDRFSGSGSGTDFTLKISRVEAEDLGVYFCSQSTHVPLTFGAGTKLELK"
